Molecular target: human melanoma gp100(46-58) peptide, Ac-…-NH2 (human)
Assay: ELISA, gp100(46-58) peptide on plate; naive DR4-IE Tg serum; anti-IgG2a detection

In the case of “serum of naive DR4-IE Tg mice (control of Tables 23.9 and 23.10) (antibody)”, the ELISA IgG2a signal at serum dilution 1:20 is reported as 0.063, the ELISA IgG2a signal at serum dilution 1:60 is reported as 0.058 and the ELISA IgG2a signal at serum dilution 1:180 is reported as 0.056. It also gave an ELISA IgG2a signal at serum dilution 1:540 of 0.055.

From US20100291145A1
